Laboratory results from patent US20190300590A1 (PROTAGONIST THERAPEUTICS, published 2019).
*1 amine or outer side, *2 acyl side, *3 side chain or, on linkers, in order; H or OH if unused. Bridges are numbered along the chain shown (N, C = ends). Primed or numbered codes have the meaning given here. [ ]: non-standard residue; d: D form. Phe(4-OMe)(3) = O-methyl-L-tyrosine (4-methoxy-L-phenylalanine), COc1ccc(C[C@H](N[*:1])C(=O)[*:2])cc1; Phe(4-Oallyl) = 4-allyloxy-phenylalanine (O-allyl-tyrosine), C=CCOc1ccc(C[C@H](N[*:1])C(=O)[*:2])cc1; Phe(4-OMe) = 4-methoxy-L-phenylalanine (O-methyl-L-tyrosine), COc1ccc(C[C@H](N[*:1])C(=O)[*:2])cc1; Phe(4-OMe)(5) = O-methyl-L-tyrosine (4-methoxy-Phe), COc1ccc(C[C@H](N[*:1])C(=O)[*:2])cc1; Phe(4-OMe)″ = 4-methoxyphenylalanine, COc1ccc(C[C@H](N[*:1])C(=O)[*:2])cc1; Phe(4-guanidino) = N=C(N)Nc1ccc(C[C@H](N)C(=O)O)cc1; Phe(4-N3) = [N-]=[N+]=Nc1ccc(C[C@H](N)C(=O)O)cc1; Tyr(Ph) = N[C@@H](Cc1ccc(Oc2ccccc2)cc1)C(=O)O; Phe(2,4-Me2) = Cc1ccc(C[C@H](N)C(=O)O)c(C)c1; Phe(4-Br) = N[C@@H](Cc1ccc(Br)cc1)C(=O)O; Phe(4-NH2) = Nc1ccc(C[C@H](N)C(=O)O)cc1; Phe(4-Me) = Cc1ccc(C[C@H](N)C(=O)O)cc1; 1Nal = N[C@@H](Cc1cccc2ccccc12)C(=O)O; 2Nal = N[C@@H](Cc1ccc2ccccc2c1)C(=O)O; AEF = NCCOc1ccc(C[C@H](N)C(=O)O)cc1; αMeF = C[C@](N)(Cc1ccccc1)C(=O)O; 4Pal = N[C@@H](Cc1ccncc1)C(=O)O; αMeK = C[C@](N)(CCCCN)C(=O)O; Abu = CC[C@H](N)C(=O)O

T1: IL23R_huFC (human, UniProt Q5VWK5 24-353)
T1 sequence (looked up): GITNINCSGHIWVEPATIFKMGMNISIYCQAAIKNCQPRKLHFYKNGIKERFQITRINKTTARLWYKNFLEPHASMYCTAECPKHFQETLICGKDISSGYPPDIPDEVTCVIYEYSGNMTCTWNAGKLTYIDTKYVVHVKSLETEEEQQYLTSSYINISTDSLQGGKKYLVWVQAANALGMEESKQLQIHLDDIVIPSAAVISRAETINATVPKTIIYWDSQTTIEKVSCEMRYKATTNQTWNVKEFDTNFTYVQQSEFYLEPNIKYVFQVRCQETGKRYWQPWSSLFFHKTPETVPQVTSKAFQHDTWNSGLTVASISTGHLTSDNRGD


Molecular target: Rat IL-23R_huFC (rat)
Assay: rat ELISA vs IL-23

| IC50 | Binder |
| --- | --- |
| 0.025 to 0.1 µM | Ac-[Abu]QTWQC[2Nal][2Nal][αMeK]ENG-NH2 (thioether 1-6) [Ac-Cyclo-[[Abu]-QTWQC]-[2-Nal]-[2-Nal]-[α-MeLys]-ENG-NH2] |
| 0.025 to 0.1 µM | Ac-[Abu]QTWQC[Phe(4-N3)][2Nal][αMeK]K(Ac)NG-NH2 (thioether 1-6) [Ac-Cyclo-[[Abu]-QTWQC]-[Phe-4-N3]-[2-Nal]-[α-MeLys]-[Lys(Ac)]-NG-NH2] |
| 0.025 to 0.1 µM | Ac-[Abu]STWQC[Phe(4-OMe)(5)][2Nal][αMeK]K(Ac)NGE-NH2 (thioether 1-6) [Ac-Cyclo-[[Abu]-STWQC]-[Phe(4-OMe)]-[2-Nal][α-MeLys]-[Lys(Ac)]-NGE-NH2] |
| 0.025 to 0.1 µM | Ac-[Abu]QTWQC[Phe(4-guanidino)]W[αMeK]ENG-NH2 (thioether 1-6) [Ac-Cyclo-[[Abu]-QTWQC]-[Phe(4-guanidino)]-W-[α-MeLys]-ENG-NH2] |
| 0.025 to 0.1 µM | Ac-[Abu]QTWQC[Phe(4-OMe)]W[αMeK]ENG-NH2 (thioether 1-6) [Ac-Cyclo-[[Abu]-QTWQC]-[Phe(4-OMe)]-W-[α-MeLys]-ENG-NH2] |
| 0.025 to 0.1 µM | Ac-[Abu]QTWQC[Phe(4-OMe)][1Nal][αMeK]K(Ac)NG-NH2 (thioether 1-6) [Ac-Cyclo-[[Abu]-QTWQC]-[Phe(4-OMe)]-[1-Nal][α-MeLys]-[Lys(Ac)]-NG-NH2] |
| 0.025 to 0.1 µM | Ac-[Abu]QTWQC[Phe(4-OMe)][1Nal][αMeK]ENG-NH2 (thioether 1-6) [Ac-Cyclo-[[Abu]-QTWQC]-[Phe(4-OMe)]-[1-Nal]-[α-MeLys]-ENG-NH2] |
| 0.025 to 0.1 µM | Ac-[Abu]QTWQC[2Nal][2Nal][αMeK]K(Ac)NG-NH2 (thioether 1-6) [Ac-Cyclo-[[Abu]-QTWQC]-[2-Nal]-[2-Nal]-[α-MeLys]-[Lys(Ac)]-NG-NH2] |
| 0.025 to 0.1 µM | Ac-[Abu]QTWQC[Phe(4-NH2)]W[αMeK]ENG-NH2 (thioether 1-6) [Ac-Cyclo-[[Abu]-QTWQC]-[Phe(4-NH2)]-W-[α-MeLys]-ENG-NH2] |
| 0.025 to 0.1 µM | XQTWQCYWXKNG (as bracketed in name; thioether cyclo) [Ac-Cyclo-[[Abu]-QTWQC-YW-[α-MeOrn]-[Lys(Ac)]-NG-NH2] |
| 0.025 to 0.1 µM | Ac-[Abu]QTWQC[Tyr(Ph)]W[αMeK]ENG-NH2 (thioether 1-6) [Ac-Cyclo-[[Abu]-QTWQC]-[Phe(4-phenoxy)]-W-[α-MeLys]-ENG-NH2] |
| 0.025 to 0.1 µM | Ac-[Abu]QTWQC[Phe(4-Br)]W[αMeK]ENG-NH2 (thioether 1-6) [Ac-Cyclo-[[Abu]-QTWQC]-[Phe(4-Br)] W-[α-MeLys]-ENG-NH2] |

Molecular target: T1, IL23R_huFC
Assay: human ELISA vs IL-23

| IC50 | Binder |
| --- | --- |
| 0.025 to 0.1 µM | Ac-[Abu]QTWQC[2Nal][2Nal][αMeK]ENG-NH2 (thioether 1-6) [Ac-Cyclo-[[Abu]-QTWQC]-[2-Nal]-[2-Nal]-[α-MeLys]-ENG-NH2] |
| 0.025 to 0.1 µM | Ac-[Abu]STWQC[Phe(4-OMe)(5)][2Nal][αMeK]K(Ac)NGE-NH2 (thioether 1-6) [Ac-Cyclo-[[Abu]-STWQC]-[Phe(4-OMe)]-[2-Nal][α-MeLys]-[Lys(Ac)]-NGE-NH2] |
| 0.025 to 0.1 µM | Ac-[Abu]QTWQC[Phe(4-OMe)][1Nal][αMeK]ENG-NH2 (thioether 1-6) [Ac-Cyclo-[[Abu]-QTWQC]-[Phe(4-OMe)]-[1-Nal]-[α-MeLys]-ENG-NH2] |
| 0.025 to 0.1 µM | Ac-[Abu]QTWQC[2Nal][2Nal][αMeK]K(Ac)NG-NH2 (thioether 1-6) [Ac-Cyclo-[[Abu]-QTWQC]-[2-Nal]-[2-Nal]-[α-MeLys]-[Lys(Ac)]-NG-NH2] |

Molecular target: T1, IL23R_huFC
Assay: human ELISA vs IL-23
Remark: another data set of the same source

| IC50 | Binder |
| --- | --- |
| 0.1 to 1 µM | Ac-[Abu]QTWQC[Phe(4-OMe)(3)][Phe(4-Oallyl)][αMeK]ENG-NH2 (thioether 1-6) [Ac-Cyclo-[[Abu]-QTWQC]-[Phe(4-OMe)]-[Phe(4-Oallyl)]-[α-MeLys]-ENG-NH2] |
| 0.1 to 1 µM | Ac-[Abu]QTWQC[Phe(4-OMe)″][Phe(4-Me)][αMeK]ENG-NH2 (thioether 1-6) [Ac-Cyclo-[[Abu]-QTWQC]-[Phe(4-OMe)]-Phe(4-Me)-[α-MeLys]-ENG-NH2] |
| 0.1 to 1 µM | Ac-[Abu]QT[Phe(2,4-Me2)]QC[AEF][2Nal][αMeK]ENG-NH2 (thioether 1-6) [Ac-Cyclo-[[Abu]-QT-[Phe(2,4-Me2)]-QC]-[Phe[4-(2-aminoethoxy)]]-[2-Nal]-[α-MeLys]-ENG-NH2] |
| 0.1 to 1 µM | Ac-[Abu]QTWQC[4Pal][2Nal][αMeK]K(Ac)NG-NH2 (thioether 1-6) [Ac-Cyclo-[[Abu]-QTWQC]-[4-Pyridylalanine]-[2-Nal][α-MeLys]-[Lys(Ac)]-NG-NH2] |
| 0.1 to 1 µM | Ac-[Abu]QT[αMeF]QC[AEF][2Nal][αMeK]ENG-NH2 (thioether 1-6) [Ac-Cyclo-[[Abu]-QT-[α-MePhe]-QC]-[Phe[4-(2-aminoethoxy)]]-[2-Nal]-[α-MeLys]-ENG-NH2] |
